The results in this text go back to publication PMC5501646.

Usually Kd stands for a measure of binding affinity in units of concentration. Low readings indicate higher affinity, high ones lower affinity.

Data set [1] deals with HfqPae (wild type) (Pseudomonas aeruginosa PAO1). The data set is described as follows: MST. As to conditions: 1 mM Mg2+, 25 C, MST: 10 mM Tris pH 8.0, 40 mM NaCl, 10 mM KCl, 1 mM MgCl2, 0.05% Tween, EMSA: 10 mM Tris-HCl pH 8.0, 10 mM MgCl2, 60 mM NaCl, 10 mM NaH2PO4, 10 mM DTT …. (In general: Mobility shift assays separate free from complexed probe on a gel.)
For data set [2], the target named is HfqPae (wild type) (Pseudomonas aeruginosa PAO1) (UniProt Q9HUM0). Briefly: EMSA. The conditions noted are these: MST: 10 mM Tris pH 8.0, 40 mM NaCl, 10 mM KCl, 1 mM MgCl2, 0.05% Tween, 25 C; EMSA: 10 mM Tris-HCl pH 8.0, 10 mM MgCl2, 60 mM NaCl, 10 mM NaH2PO4, 10 mM DTT ….
Data set [3] shares this target. The data set is described as follows: MST. The conditions noted are these: MST: 10 mM Tris pH 8.0, 40 mM NaCl, 10 mM KCl, 1 mM MgCl2, 0.05% Tween, 25 C; EMSA: 10 mM Tris-HCl pH 8.0, 10 mM MgCl2, 60 mM NaCl, 10 mM NaH2PO4, 10 mM DTT ….
Data set [4] deals with HfqPaeY25DFlag Y25D (Pseudomonas aeruginosa PAO1) (UniProt Q9HUM0). Briefly: EMSA. As to conditions: MST: 10 mM Tris pH 8.0, 40 mM NaCl, 10 mM KCl, 1 mM MgCl2, 0.05% Tween, 25 C; EMSA: 10 mM Tris-HCl pH 8.0, 10 mM MgCl2, 60 mM NaCl, 10 mM NaH2PO4, 10 mM DTT ….

The substance CrcZ RNA showed a dissociation constant Kd in data set [1] (30 nM labelled Hfq) of 7.4 nM. In other words, the single-digit nanomolar range.

On to “GGACUGGUCGCGAGGCCAGCAGGUAAGCUGAGAGACCAAGCAGUCGGACUCUUCAGAUUAUCUCCUCAUCAGGCUAAUCACGGUUUCGACCCGGCACUUUGCCGGGUCUUUUUUUG [PrrF2 sRNA]”, for which, in data set [2], the binding result was “binds”. “GGGAGCCGGCCUUGCGCCGGCAUAUGCCUUGCAUUUUGCUGAAAACAGAGCGCCAGCAGAGCGCACCCCCAGCCUUGCCGUGUCGAGUGCCGAACCAUGAUGAGGACCCAUCCCGUCGCCGAUCGUGGCGAUCUCCAUGCCGACCACCUGGACCUGGCCGCCG [antR(-95-+67) mRNA fragment]” had a Kd in data set [3] of 37.3 nM. Besides, the binding result in data set [4] is “no binding”.

For antR(-95-+67) mRNA fragment, the Kd in data set [1] (20 nM labelled Hfq) stood at 37.3 nM.
